B1: bNAb 8ANC195 Fab (for SPR) (Fab, V domains shown)
VH: QIHLVQSGTEVKKPGSSVTVSCKAYGVNTFGLYAVNWVRQAPGQSLEYIGQIWRWKSSASHHFRGRVLISAVDLTGSSPPISSLEIKDLTSDDTAVYFCTTTSTYDKWSGLHHDGVMAFSSWGQGTLISVSA
VL: DIQMTQSPSTLSASIGDTVRISCRASQSITGNWVAWYQQRPGKAPRLLIYRGAALLGGVPSRFSGSAAGTDFTLTIGNLQAEDFGTFYCQQYDTYPGTFGQGTKVEVK
B2: bNAb F6 Fab (for SPR) (Fab, V domains shown)
VH: QVQLQQWGTGLLKPSETLSLTCAVYGVSLRGYYWTWIRQSPKKGLEWIGEIDEIGRTKYSQSLRSRATLSIDTSKKQFSLRLTSVTAADMATYYCARWRLMMVDEVTRHGMDVWSQGTMVTVSS
VL: DIVMTQSPLSLSVAPGEAASISCRSTQSLLNRNGDNYLEWYLRRPGRSPQLLIYLGSERALGVPDRFSGSGSGRDFTLKISRVEAQDVGTYYCLQTRQGAFTFGQGTKLEIK

What was measured:
Assay in all cases: SPR
Settings in all cases: both partners purified
[1] = biological target: T1, X16 SOSIP-His (CRF07_BC Env trimer in SOSIP design) (HIV-1 BJOX016000.e15 (X16, CRF07_BC), UniProt A0A0E3EAD6, stabilised)
T1 construct: copies: 3 + 3

[2] = biological target: T2, BG505 SOSIP-His (subtype A Env trimer) (HIV-1 BG505 (subtype A), UniProt Q2N0S6, stabilised)
T2 construct: copies: 3 + 3

[3] = biological target: T3, X18 SOSIP-His (CRF01_AE Env trimer in SOSIP design) (HIV-1 BJOX018000.e12 (X18, CRF01_AE), UniProt A0A0E3EAY4, stabilised)
T3 construct: copies: 3 + 3

[4] = biological target: T4, Q769 UFO (subtype A Env of Q769_d22) (HIV-1 Q769_d22 (subtype A), UniProt Q8JDJ1, stabilised)
T4 construct: source: FreeStyle 293F, transient transfection (PEI), purified (GNL resin, SEC)

[5] = biological target: T5, X18 UFO (CRF01_AE Env), wild type, for SPR (HIV-1 BJOX018000.e12 (X18, CRF01_AE), stabilised)
T5 construct: source: FreeStyle 293F, transient transfection (PEI), purified (GNL resin, SEC)

Row | Binder | binding result [1] | binding result [2] | binding result [3] | binding result [4] | Kd [5] [nM]
1 | B1 | binds | binds | binds |  | 
2 | B2 |  |  |  | binds | 0.041

Reference: publication PMC10403546 (Nature Communications, 2023)
